From article PMC5259782, “Allosteric Inhibition of Phosphoenolpyruvate Carboxylases is Determined by a Single Amino Acid Residue in Cyanobacteria” (Scientific Reports, 2017)
One block for each molecule: values may come before it.

Tests used:
[1] = target: T1, SyPEPC (Synechocystis sp. PCC 6803, UniProt P74299, E954K); experiment: malate dehydrogenase-coupled NADH assay, residual activity; format: biochemical; settings: fumarate; allosteric
T1 construct: gene ppc

[2] = target: T2, SyPEPC (Synechocystis sp. PCC 6803, UniProt P74299); experiment: as above; format: biochemical; settings: read-out: SyPEPC activity (in vitro)
T2 construct: gene ppc
T2 sequence (P74299 1-1034): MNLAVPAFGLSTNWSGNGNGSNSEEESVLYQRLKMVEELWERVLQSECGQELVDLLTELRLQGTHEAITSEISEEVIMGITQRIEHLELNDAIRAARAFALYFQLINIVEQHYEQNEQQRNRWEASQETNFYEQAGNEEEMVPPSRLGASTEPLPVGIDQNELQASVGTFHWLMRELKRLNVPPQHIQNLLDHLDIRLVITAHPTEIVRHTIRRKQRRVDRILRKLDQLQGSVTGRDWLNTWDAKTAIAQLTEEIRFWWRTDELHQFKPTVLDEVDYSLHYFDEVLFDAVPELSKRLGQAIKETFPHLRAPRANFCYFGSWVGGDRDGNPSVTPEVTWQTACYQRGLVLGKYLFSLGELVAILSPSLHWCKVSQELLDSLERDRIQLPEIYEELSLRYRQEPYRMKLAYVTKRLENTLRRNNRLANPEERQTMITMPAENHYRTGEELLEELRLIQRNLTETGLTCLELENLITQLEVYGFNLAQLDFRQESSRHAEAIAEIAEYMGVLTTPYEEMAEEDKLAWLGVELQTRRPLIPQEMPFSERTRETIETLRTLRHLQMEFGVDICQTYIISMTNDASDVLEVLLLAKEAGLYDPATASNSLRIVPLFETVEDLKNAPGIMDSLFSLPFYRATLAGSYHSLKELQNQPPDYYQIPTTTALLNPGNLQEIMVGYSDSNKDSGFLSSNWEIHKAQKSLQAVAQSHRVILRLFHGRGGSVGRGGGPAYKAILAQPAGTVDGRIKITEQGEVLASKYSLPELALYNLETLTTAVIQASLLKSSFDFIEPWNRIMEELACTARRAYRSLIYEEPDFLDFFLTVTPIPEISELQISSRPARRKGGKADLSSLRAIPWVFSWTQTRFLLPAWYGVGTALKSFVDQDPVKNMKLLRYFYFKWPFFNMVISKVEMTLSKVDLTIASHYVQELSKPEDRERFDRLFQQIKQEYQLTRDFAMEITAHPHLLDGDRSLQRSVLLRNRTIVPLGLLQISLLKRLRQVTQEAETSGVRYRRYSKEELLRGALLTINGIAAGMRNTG
Text: malate dehydrogenase-coupled NADH assay, residual activity on SyPEPC

[3] = target: T3, AnPEPC (Nostoc sp. PCC 7120 = FACHB-418, UniProt P28594); experiment: as above; format: biochemical; settings: read-out: % activity remaining at 1 mM
T3 construct: gene ppc

[4] = substrate: O=C(O)O; experiment: purified protein; settings: PEP
[5] = substrate: C=C(OP(=O)(O)O)C(=O)O; experiment: malate dehydrogenase-coupled NADH assay (A340), Lineweaver-Burk; format: biochemical, Synechocystis sp. PCC 6803
[6] = substrate: C=C(OP(=O)(O)O)C(=O)O; experiment: as above; format: biochemical, Nostoc sp. PCC 7120 = FACHB-418

- activity at 1000 µM [2]: 75 ± 9.7%
Molecule: O=C(O)/C=C/C(=O)O [fumarate]
- % activity remaining [1]: The inhibitory effect of fumarate was also enhanced in SyPEPC_E954K compared with SyPEPC

- remaining activity at 1000 µM [3]: < 30%
- activity at 1000 µM [2]: 77.1 ± 6.3%
Molecule: O=C(O)C[C@H](O)C(=O)O [malate]

- activity at 1000 µM [2]: 124 ± 12.3%
Molecule: O=C(O)CCC(=O)O [succinate]

B1: SyPEPC (Synechocystis sp. PCC 6803 substr. Kazusa; E954K) (protein)
chain: MNLAVPAFGLSTNWSGNGNGSNSEEESVLYQRLKMVEELWERVLQSECGQELVDLLTELRLQGTHEAITSEISEEVIMGITQRIEHLELNDAIRAARAFALYFQLINIVEQHYEQNEQQRNRWEASQETNFYEQAGNEEEMVPPSRLGASTEPLPVGIDQNELQASVGTFHWLMRELKRLNVPPQHIQNLLDHLDIRLVITAHPTEIVRHTIRRKQRRVDRILRKLDQLQGSVTGRDWLNTWDAKTAIAQLTEEIRFWWRTDELHQFKPTVLDEVDYSLHYFDEVLFDAVPELSKRLGQAIKETFPHLRAPRANFCYFGSWVGGDRDGNPSVTPEVTWQTACYQRGLVLGKYLFSLGELVAILSPSLHWCKVSQELLDSLERDRIQLPEIYEELSLRYRQEPYRMKLAYVTKRLENTLRRNNRLANPEERQTMITMPAENHYRTGEELLEELRLIQRNLTETGLTCLELENLITQLEVYGFNLAQLDFRQESSRHAEAIAEIAEYMGVLTTPYEEMAEEDKLAWLGVELQTRRPLIPQEMPFSERTRETIETLRTLRHLQMEFGVDICQTYIISMTNDASDVLEVLLLAKEAGLYDPATASNSLRIVPLFETVEDLKNAPGIMDSLFSLPFYRATLAGSYHSLKELQNQPPDYYQIPTTTALLNPGNLQEIMVGYSDSNKDSGFLSSNWEIHKAQKSLQAVAQSHRVILRLFHGRGGSVGRGGGPAYKAILAQPAGTVDGRIKITEQGEVLASKYSLPELALYNLETLTTAVIQASLLKSSFDFIEPWNRIMEELACTARRAYRSLIYEEPDFLDFFLTVTPIPEISELQISSRPARRKGGKADLSSLRAIPWVFSWTQTRFLLPAWYGVGTALKSFVDQDPVKNMKLLRYFYFKWPFFNMVISKVEMTLSKVDLTIASHYVQELSKPEDRERFDRLFQQIKQEYQLTRDFAMKITAHPHLLDGDRSLQRSVLLRNRTIVPLGLLQISLLKRLRQVTQEAETSGVRYRRYSKEELLRGALLTINGIAAGMRNTG
- Km ([4]; 10 mM MgCl2): 760 µM
- Km ([5]; 50 mM NaHCO3, 10 mM MgCl2): 820 µM

B2: SyPEPC (Synechocystis sp. PCC 6803 substr. Kazusa) (protein)
chain: MNLAVPAFGLSTNWSGNGNGSNSEEESVLYQRLKMVEELWERVLQSECGQELVDLLTELRLQGTHEAITSEISEEVIMGITQRIEHLELNDAIRAARAFALYFQLINIVEQHYEQNEQQRNRWEASQETNFYEQAGNEEEMVPPSRLGASTEPLPVGIDQNELQASVGTFHWLMRELKRLNVPPQHIQNLLDHLDIRLVITAHPTEIVRHTIRRKQRRVDRILRKLDQLQGSVTGRDWLNTWDAKTAIAQLTEEIRFWWRTDELHQFKPTVLDEVDYSLHYFDEVLFDAVPELSKRLGQAIKETFPHLRAPRANFCYFGSWVGGDRDGNPSVTPEVTWQTACYQRGLVLGKYLFSLGELVAILSPSLHWCKVSQELLDSLERDRIQLPEIYEELSLRYRQEPYRMKLAYVTKRLENTLRRNNRLANPEERQTMITMPAENHYRTGEELLEELRLIQRNLTETGLTCLELENLITQLEVYGFNLAQLDFRQESSRHAEAIAEIAEYMGVLTTPYEEMAEEDKLAWLGVELQTRRPLIPQEMPFSERTRETIETLRTLRHLQMEFGVDICQTYIISMTNDASDVLEVLLLAKEAGLYDPATASNSLRIVPLFETVEDLKNAPGIMDSLFSLPFYRATLAGSYHSLKELQNQPPDYYQIPTTTALLNPGNLQEIMVGYSDSNKDSGFLSSNWEIHKAQKSLQAVAQSHRVILRLFHGRGGSVGRGGGPAYKAILAQPAGTVDGRIKITEQGEVLASKYSLPELALYNLETLTTAVIQASLLKSSFDFIEPWNRIMEELACTARRAYRSLIYEEPDFLDFFLTVTPIPEISELQISSRPARRKGGKADLSSLRAIPWVFSWTQTRFLLPAWYGVGTALKSFVDQDPVKNMKLLRYFYFKWPFFNMVISKVEMTLSKVDLTIASHYVQELSKPEDRERFDRLFQQIKQEYQLTRDFAMEITAHPHLLDGDRSLQRSVLLRNRTIVPLGLLQISLLKRLRQVTQEAETSGVRYRRYSKEELLRGALLTINGIAAGMRNTG
- Km ([4]; 10 mM MgCl2, pH 7.3, 30 °C, pH 7.3, 30.0 °C): 800 µM
- Km ([5]; 50 mM NaHCO3, 10 mM MgCl2, pH 7.3, 30 °C): 340 µM

B3: AnPEPC (Nostoc sp. PCC 7120 = FACHB-418) (protein)
chain: MGSVLYSLSESANLYPASELFLRHRLQIVEELWESVLRQECGQNMVDLLRQLRDLCSPEGQATKDQAVSAVKLIEQLNINEAIRAARAFALYFQLINIIEQEYEQRQQLTRYSDLEAETAPLNGSENITSSSNHNEDDVIFNRGLGTDFLGKNWTNRGQGKQKGTFAALFPLLSKLNVPPQQIQRLISQLDVRLVFTAHPTEIVRHTIRDKQRQVVDLLQQLDEVENRAKDGGGYPWEAGEIREKLLEEIRLWWRTDELHQFKPTVLDEVDYALHYFQEVLFDGIPQLYKRFKYALNQTFSWLEPPSKDFCSFGSWVGSDRDGNPSVTPEITWQTACYQRKMVLERYIKSVTQLIELLSISMHWSDVLPDLLESLELDQSQLSEVYDALALRYRQEPYRLKLAYVLKRLENTRDRNLALYKGETPTNEDSPMYRSGSEFLAELRLIQHNLTETGLSCRELDNLICQVEIFDFNLTKLDIRQESTRHSDALNEILDYLQLLPQPYNDLSEEQRVAWLTTELQTRRPLISSELPFSDKTNDVIKTFRVVRSLQQEFGINICQTYIISMCRQVSDVLEVLLLAKEARLFDPAIAVGTIQVVPLFETVEDLQRSRSVMRQLFELPLYRALLAGGYKNTEVKVPNTELTPQSPAPSPQSVLTPDLQEVMLGYSDSNKDSGFLSSNWEIHKAQKSLQQIAEEYGVNLRIFHGRGGSVGRGGGPAHEAILAQPGHSINGRIKITEQGEVLASKYSLLDLALYNLETITTAVIQASLLRTGFDDIEPWNEIMEELAARSRQHYRGLIYEQPDFIDFFHQVTPIEEISQLQISSRPARRPSGKKDLSSLRAIPWVFSWTQTRFLLPSWYGVGTALQEFFNEEPEEHLKLMRYFYVKWPFFKMVISKVEMTLAKVDMQMAGHYVQELSDPEDKPRFEKVFEQIANEYYLTRDLVLKITDHGRLLDGDPVLQRSVQLRNGTIVPLGFIQVSLLKRLRQSKNNTATSGVIHSRYSKGELLRGALLTINGIAAGMRNTG
- Km ([4]; 10 mM MgCl2, pH and temperature not stated (optimum pH 8.0, 35 °C), pH 8.0, 35.0 °C): 240 µM
- Km ([6]; 50 mM NaHCO3, 10 mM MgCl2, pH and temperature not stated (optimum pH 8.0, 35 °C)): 1100 µM

B4: AnPEPC (Nostoc sp. PCC 7120 = FACHB-418; K946E) (protein)
chain: MGSVLYSLSESANLYPASELFLRHRLQIVEELWESVLRQECGQNMVDLLRQLRDLCSPEGQATKDQAVSAVKLIEQLNINEAIRAARAFALYFQLINIIEQEYEQRQQLTRYSDLEAETAPLNGSENITSSSNHNEDDVIFNRGLGTDFLGKNWTNRGQGKQKGTFAALFPLLSKLNVPPQQIQRLISQLDVRLVFTAHPTEIVRHTIRDKQRQVVDLLQQLDEVENRAKDGGGYPWEAGEIREKLLEEIRLWWRTDELHQFKPTVLDEVDYALHYFQEVLFDGIPQLYKRFKYALNQTFSWLEPPSKDFCSFGSWVGSDRDGNPSVTPEITWQTACYQRKMVLERYIKSVTQLIELLSISMHWSDVLPDLLESLELDQSQLSEVYDALALRYRQEPYRLKLAYVLKRLENTRDRNLALYKGETPTNEDSPMYRSGSEFLAELRLIQHNLTETGLSCRELDNLICQVEIFDFNLTKLDIRQESTRHSDALNEILDYLQLLPQPYNDLSEEQRVAWLTTELQTRRPLISSELPFSDKTNDVIKTFRVVRSLQQEFGINICQTYIISMCRQVSDVLEVLLLAKEARLFDPAIAVGTIQVVPLFETVEDLQRSRSVMRQLFELPLYRALLAGGYKNTEVKVPNTELTPQSPAPSPQSVLTPDLQEVMLGYSDSNKDSGFLSSNWEIHKAQKSLQQIAEEYGVNLRIFHGRGGSVGRGGGPAHEAILAQPGHSINGRIKITEQGEVLASKYSLLDLALYNLETITTAVIQASLLRTGFDDIEPWNEIMEELAARSRQHYRGLIYEQPDFIDFFHQVTPIEEISQLQISSRPARRPSGKKDLSSLRAIPWVFSWTQTRFLLPSWYGVGTALQEFFNEEPEEHLKLMRYFYVKWPFFKMVISKVEMTLAKVDMQMAGHYVQELSDPEDKPRFEKVFEQIANEYYLTRDLVLEITDHGRLLDGDPVLQRSVQLRNGTIVPLGFIQVSLLKRLRQSKNNTATSGVIHSRYSKGELLRGALLTINGIAAGMRNTG
- Km ([4]; 10 mM MgCl2): 250 µM
- Km ([6]; 50 mM NaHCO3, 10 mM MgCl2): 800 µM
